The target in assay [1] is human intestinal alkaline phosphatase (human) (UniProt P09923). Put plainly: immunoblot, serial dilution of human small intestinal lysate; 0.234 µg lysate loaded. In general terms: A western blot detects proteins with antibodies after separation by electrophoresis.
Assay [2] has the same target. The experiment in a line: immunoblot, serial dilution of human small intestinal lysate; 0.938 µg lysate loaded.
The target is the same in assay [3]. The experiment in a line: immunoblot, serial dilution of human small intestinal lysate; 0.015 µg lysate loaded.
Assay [4] shares this target. Put plainly: immunoblot, serial dilution of human small intestinal lysate; 0.029 µg lysate loaded.
Assay [5] has the same target. The experiment in a line: immunoblot, serial dilution of human small intestinal lysate; 0.117 µg lysate loaded.
For assay [6] the target is unchanged. Put plainly: immunoblot, serial dilution of human small intestinal lysate; 1.875 µg lysate loaded.
Assay [7] has the same target. Put plainly: immunoblot, serial dilution of human small intestinal lysate; 3.75 µg lysate loaded.
Assay [8] shares this target. Put plainly: immunoblot, serial dilution of human small intestinal lysate; 7.5 µg lysate loaded.
The target is the same in assay [9]. The experiment in a line: immunoblot, serial dilution of human small intestinal lysate; 0.059 µg lysate loaded.
Assay [10] has the same target. Put plainly: immunoblot, serial dilution of human small intestinal lysate; 0.469 µg lysate loaded.

Sequence of UniProt P09923 (P09923 20-503 limits assumed): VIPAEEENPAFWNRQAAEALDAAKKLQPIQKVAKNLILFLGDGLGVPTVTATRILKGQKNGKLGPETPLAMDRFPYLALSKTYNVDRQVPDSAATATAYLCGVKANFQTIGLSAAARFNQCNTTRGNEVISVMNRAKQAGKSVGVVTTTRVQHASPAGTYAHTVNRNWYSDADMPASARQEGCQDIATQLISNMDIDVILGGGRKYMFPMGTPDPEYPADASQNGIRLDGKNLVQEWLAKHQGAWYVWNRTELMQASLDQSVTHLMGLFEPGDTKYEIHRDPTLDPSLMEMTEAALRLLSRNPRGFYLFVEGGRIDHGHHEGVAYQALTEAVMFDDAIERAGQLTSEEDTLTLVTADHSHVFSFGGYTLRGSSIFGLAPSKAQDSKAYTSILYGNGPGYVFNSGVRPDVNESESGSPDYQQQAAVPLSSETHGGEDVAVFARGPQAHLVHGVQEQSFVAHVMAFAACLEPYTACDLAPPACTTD

Consider “primary rabbit polyclonal antibodies against human iAP (Abcam, ab7322) (antibody)”, for which the mean relative fluorescence units for the total iAP (relative fluorescence units) in assay [1] came out at 44100; in assay [2] it was 143000; in assay [3], 227; in [4], 1160; in assay [5], 18200; in assay [6], 211000. Besides, the mean relative fluorescence units for the total iAP (relative fluorescence units) in assay [7] turned out to be 234000; in assay [8], 217000; in [9] it was 4920; in [10] it was 75700.

These data come from US20240393333A1.
